Results published in article PMC9886983, “Mechanism of regulation of the Helicobacter pylori Cagβ ATPase by CagZ” (Nature Communications, 2023).

Experiments:
[1] = molecular target: Cagβ-AAD1 E462A (Helicobacter pylori 26695); assay: ITC; ITC-200 at 25 °C; 20 mM Tris pH 8.0, 150 mM NaCl; Cagβ proteins (20 µM) in the cell, CagZ proteins or peptides (200 µM) in the syringe
[2] = molecular target: Cagβ-AAD1 D356A (Helicobacter pylori 26695); assay: as above
[3] = molecular target: Cagβ-AAD1 E350A (Helicobacter pylori 26695); assay: as above
[4] = molecular target: Cagβ-AAD1 R375A (Helicobacter pylori 26695); assay: as above
[5] = molecular target: Cagβ-AAD1 (all-alpha domain of Cagβ, residues 289–488) (Helicobacter pylori 26695) (UniProt O25260); assay: as above
[6] = molecular target: Cagβ-AAD1 N365A (Helicobacter pylori 26695); assay: as above
[7] = molecular target: Cagβ-AAD1 K388A (Helicobacter pylori 26695); assay: as above
[8] = molecular target: Cagβ-AAD1 Y374F (Helicobacter pylori 26695); assay: as above
[9] = molecular target: Cagβ-AAD1 D309A (Helicobacter pylori 26695); assay: as above
[10] = molecular target: Cagβ-AAD1 E396A (Helicobacter pylori 26695); assay: as above
[11] = molecular target: Cagβ-AAD1 N449A (Helicobacter pylori 26695); assay: as above
[12] = molecular target: Cagβ-AAD1 E314A (Helicobacter pylori 26695); assay: as above
[13] = molecular target: Cagβ-AAD1 F358A (Helicobacter pylori 26695); assay: as above
[14] = molecular target: Cagβ1 (soluble region of Cagβ, residues 166–748) (Helicobacter pylori 26695) (UniProt O25260); assay: mass photometry; Cagβ1/CagZ complex (co-expressed, co-purified) at 0.06 µM; OneMP instrument (Refeyn)
[15] = molecular target: Cagβ-AAD1 N452A (Helicobacter pylori 26695); assay: ITC; ITC-200 at 25 °C; 20 mM Tris pH 8.0, 150 mM NaCl; Cagβ proteins (20 µM) in the cell, CagZ proteins or peptides (200 µM) in the syringe
[16] = molecular target: Cagβ-AAD1 S453A (Helicobacter pylori 26695); assay: as above
[17] = molecular target: Cagβ-AAD1 N361A (Helicobacter pylori 26695); assay: as above
[18] = molecular target: Cagβ-AAD1 D335A (Helicobacter pylori 26695); assay: as above
[19] = molecular target: Cagβ-AAD1 T338A (Helicobacter pylori 26695); assay: as above
[20] = molecular target: T1, Cagβ-AAD1 (residues 289-488), wild type (Helicobacter pylori 26695, UniProt O25260 289-488); assay: ITC; ITC-200, 25 °C, 20 mM Tris pH 8.0, 150 mM NaCl; Cagβ proteins (20 µM) in the cell, CagZ proteins (200 µM) in the syringe; conditions: both partners purified
T1 construct: Cagβ (HP0524, Cag5) of Helicobacter pylori 26695, residues 289-488, holds the all-alpha domain (AAD); also called Cagβ-AAD1_WT; Cagβ-AAD1 (289-488); source: E. coli BL21 star (DE3), purified (Ni-NTA, TEV, second Ni-NTA, SEC); not shown: His6, N-terminal, cleaved; TrxA, N-terminal, cleaved
T1 sequence: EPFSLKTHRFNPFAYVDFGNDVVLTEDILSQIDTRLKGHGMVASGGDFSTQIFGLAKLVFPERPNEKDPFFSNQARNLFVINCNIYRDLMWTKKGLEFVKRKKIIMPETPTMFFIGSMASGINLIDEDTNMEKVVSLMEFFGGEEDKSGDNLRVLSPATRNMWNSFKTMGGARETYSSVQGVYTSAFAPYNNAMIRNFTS

[21] = molecular target: T2, Cagβ-AAD1 (all-alpha domain of Cagβ, residues 289–488) (Helicobacter pylori 26695, UniProt O25260 289-488); assay: ITC; ITC-200 at 25 °C; 20 mM Tris pH 8.0, 150 mM NaCl; Cagβ proteins (20 µM) in the cell, CagZ proteins or peptides (200 µM) in the syringe; conditions: both partners purified
T2 construct: Cagβ (HP0524, Cag5) of H. pylori 26695, residues 289-488, holding the all-alpha domain (AAD); source: E. coli BL21 star (DE3), purified (Ni-NTA, TEV cleavage, second Ni-NTA, SEC); not shown: His6, N-terminal, cleaved; TrxA, N-terminal, cleaved
T2 sequence: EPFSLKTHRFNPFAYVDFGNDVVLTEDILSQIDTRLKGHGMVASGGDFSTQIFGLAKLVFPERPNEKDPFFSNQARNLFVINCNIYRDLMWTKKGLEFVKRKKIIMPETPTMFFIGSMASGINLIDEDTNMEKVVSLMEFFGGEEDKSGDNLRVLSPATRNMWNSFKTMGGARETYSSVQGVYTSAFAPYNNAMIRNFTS

[22] = molecular target: T3, CagZ (residues 2-199), wild type (Helicobacter pylori 26695, UniProt B5Z6P9 2-199); assay: ITC; ITC-200, 25 °C, 20 mM Tris pH 8.0, 150 mM NaCl; Cagβ proteins (20 µM) in the cell, CagZ proteins (200 µM) in the syringe; conditions: both partners purified
T3 construct: CagZ of Helicobacter pylori 26695, residues 2-199; also called CagZ-WT; source: E. coli BL21 star (DE3), purified (Ni-NTA, TEV, second Ni-NTA, SEC); not shown: His6, N-terminal, cleaved; TrxA, N-terminal, cleaved
T3 sequence: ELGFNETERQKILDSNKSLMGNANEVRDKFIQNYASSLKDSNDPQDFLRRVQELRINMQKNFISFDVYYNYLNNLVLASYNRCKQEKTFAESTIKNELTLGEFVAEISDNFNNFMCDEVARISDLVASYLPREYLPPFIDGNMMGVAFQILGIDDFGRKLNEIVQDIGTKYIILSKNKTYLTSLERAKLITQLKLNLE

Molecule CagZ R133A (natural protein) has a Kd [1] of 20 nM.

In the case of CagZ Q150A (natural protein), the Kd [2] is reported as 50 nM.

In the case of CagZ R159A (natural protein), the Kd [3] is reported as 40 nM.

Work on CagZ Y181A (natural protein) yielded a Kd [4] of 35700 nM and a Kd [5] of 560 nM.

Molecule CagZ N162A (natural protein) has a Kd [6] of 40 nM.

“CagZ (residues 2–199), expressed separately from pET-32a (from UniProt O25261 2-199) (natural protein)” gave a Kd [7] of 40 nM, a Kd [8] of 20 nM and a Kd [9] of 70 nM. It also gave a Kd [4] of 1460 nM, a Kd [10] of 40 nM and a Kd [11] of 20 nM.

Work on CagZ Y81F (natural protein) yielded a Kd [12] of 90 nM.

CagZ F149A (natural protein) showed a Kd [13] of 410 nM.

For CagZ N178A/Y181A (natural protein), the Kd [5] was 1500 nM.

“CagZ co-expressed with Cagβ1 from pET-28a (natural protein)” showed a percent of the protein in the 1:1 complex [14] of 88% and a stoichiometry N [14] of 1.

For CagZ D125A (natural protein), the Kd [15] was 60 nM.

CagZ S184A (natural protein) was tested, and the Kd [5] was 70 nM.

CagZ R187A (natural protein) gave a Kd [5] of 16900 nM.

CagZ S124A (natural protein) gave a Kd [16] of 20 nM.

With CagZ K85A (natural protein) the Kd [12] was 80 nM.

CagZ D155A (natural protein) gave a Kd [17] of 60 nM.

With CagZ E199A (natural protein) the Kd [5] was 40 nM.

CagZ N178A (natural protein) gave a Kd [4] of 8770 nM and a Kd [5] of 150 nM.

Work on CagZ T170A (natural protein) yielded a Kd [18] of 90 nM and a Kd [19] of 90 nM.

B1: CagZ (residues 2-199) E199A (natural protein)
chain: ELGFNETERQKILDSNKSLMGNANEVRDKFIQNYASSLKDSNDPQDFLRRVQELRINMQKNFISFDVYYNYLNNLVLASYNRCKQEKTFAESTIKNELTLGEFVAEISDNFNNFMCDEVARISDLVASYLPREYLPPFIDGNMMGVAFQILGIDDFGRKLNEIVQDIGTKYIILSKNKTYLTSLERAKLITQLKLNLA
notes: CagZ of Helicobacter pylori 26695, residues 2-199, with E199A; source: E. coli BL21 star (DE3), purified as the wild type but without TEV protease treatment; not shown: His6, N-terminal, kept; TrxA, N-terminal, kept
B1 showed a Kd [20] of ~50 nM.

B2: CagZ (residues 2–199), expressed separately from pET-32a (natural protein)
chain: ELGFNEAERQKILDSNSSLMGNANEVRDKFIQNYASSLKDSNDPQDFLRRVQELRINMQKNFISFDVYYNYLNNLVLASYNRCKQEKTFAESTIKNELTLGEFVAEISDNFNNFMCDEVARISDLVASYLPREYLPPFIDGNMMGVAFQILGIDDFGRKLNEIVQDIGTKYIILSKNKTYLTSLERAKLITQLKLNLE
notes: CagZ of H. pylori 26695, residues 2-199; also called WT; full-length CagZ; source: E. coli BL21 star (DE3), purified (Ni-NTA, TEV cleavage, second Ni-NTA, SEC); not shown: His6, N-terminal, cleaved; TrxA, N-terminal, cleaved
With B2 the Kd [21] was 90 nM.

B3: CagZ-24 (peptide of the CagZ C-terminal tail, residues 176–199) (peptide)
peptide: SKNKTYLTSLERAKLITQLKLNLE
notes: CagZ of H. pylori, C-terminal tail, residues 176-199; source: synthetic peptide (Genscript)
In the case of B3, the Kd [21] is reported as 330 nM.

B4: Cagβ-AAD3 (residues 299-488) (domain or fragment)
chain: NPFAYVDFGNDVVLTEDILSQIDTRLKGHGMVASGGDFSTQIFGLAKLVFPERPNEKDPFFSNQARNLFVINCNIYRDLMWTKKGLEFVKRKKIIMPETPTMFFIGSMASGINLIDEDTNMEKVVSLMEFFGGEEDKSGDNLRVLSPATRNMWNSFKTMGGARETYSSVQGVYTSAFAPYNNAMIRNFTS
notes: Cagβ (HP0524, Cag5) of Helicobacter pylori 26695, residues 299-488, holds the all-alpha domain (AAD); also called Cagβ-AAD3 (299-488); source: E. coli BL21 star (DE3), purified (Ni-NTA, TEV, second Ni-NTA, SEC); not shown: His6, N-terminal, cleaved; TrxA, N-terminal, cleaved
For B4, the Kd [22] was 190 nM.

B5: CagZ-20 (peptide of the CagZ C-terminal tail, residues 176–195) (peptide)
peptide: SKNKTYLTSLERAKLITQLK
notes: CagZ of H. pylori, C-terminal tail, residues 176-195; source: synthetic peptide (Genscript)
In the case of B5, the Kd [21] is reported as 42000 nM.
